Article PMC3128695, “A Lower-Order Oligomer Form of Phage Shock Protein A (PspA) Stably Associates with the Hexameric AAA^+ Transcription Activator Protein PspF for Negative Regulation” (Journal of Molecular Biology, 2009)

B1: His-PspA(68–110) (HD2) (domain or fragment)
chain: not shown
notes: PspA, E. coli, residues 68-110 (HD2); Cloned NdeI-BamHI into pET28b+, which should give an N-terminal His tag as for the other fragments (surmised); a start codon was added by the forward primer; source: pET28b+-based plasmid pGJ52
B2: His-PspA(1–110) (HD1–HD2) (domain or fragment)
chain: not shown
B3: His-PspA(68–222) (HD2–HD3–HD4) (domain or fragment)
chain: not shown
B4: His-PspA(68–186) (HD2–HD3) (domain or fragment)
chain: not shown

Target: the molecule itself
Assay: SEC; single proteins alone: 50-μl samples of 30 μM PspAFL or PspA fragments (20 μM PspF1–275), Superose 6, 4 °C, 20 mM Tris–HCl pH 8.0, 50 mM NaCl, 15 mM MgCl2; apparent oligomeric forms from calibration with globular proteins

B1 and B2 are the same in “stoichiometry N” value: 2 subunits for the first, 2 subunits for the second.

B3 and B4 are the same in “stoichiometry N” value: 6 subunits for the first, 6 subunits for the second.
